Data from patent publication US20260193326A1 (published 2026).

How the values were obtained:
[1] = biological target: T1, AAV5 (adeno-associated virus 5); assay: SPR, AAV amine-coupled to CM5 chip;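 also: nanobodies flowed as analyte at seven concentrations spanning 1–100 nM over immobilized AAV (500–800 RU), kinetic constants derived by fitting the binding curves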
T1 construct: also called adeno-associated virus serotype 5
Description: (§1) AAV was amine-coupled to a CM5 sensor chip at a density of 500-800 response units (RU). Nanobodies were injected at seven concentrations (1-100 nM) with a flow rate of 45 μL/min, and chip regeneration was performed using glycine-HCl (pH 1.5). Binding curves at different nanobody concentrations were used to calculate kinetic parameters (Kₐ, Kd, KD) (Table 2 and FIG. 2).

[2] = biological target: T2, AAV9 (adeno-associated virus 9); assay: SPR, AAV amine-coupled to CM5 chip;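 also: nanobodies flowed as analyte at seven concentrations spanning 1–100 nM over immobilized AAV (500–800 RU), kinetic constants derived by fitting the binding curves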
T2 construct: also called adeno-associated virus serotype 9
Description: as §1

[3] = biological target: T3, AAV8 (adeno-associated virus 8); assay: SPR, AAV amine-coupled to CM5 chip;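 also: nanobodies flowed as analyte at seven concentrations spanning 1–100 nM over immobilized AAV (500–800 RU), kinetic constants derived by fitting the binding curves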
T3 construct: also called adeno-associated virus serotype 8
Description: as §1

[4] = biological target: T4, AAV5; assay: SPR, AAV on CM5 chip;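 also: surface plasmon resonance with AAV amine-coupled to the chip as ligand, nanobodies injected as analyte over a concentration series, rate constants and affinity fitted from binding curves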
T4 construct: also called adeno-associated virus serotype 5
Description: as §1

[5] = biological target: T5, AAV8; assay: SPR, AAV on CM5 chip;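 also: surface plasmon resonance with AAV amine-coupled to the chip as ligand, nanobodies injected as analyte over a concentration series, rate constants and affinity fitted from binding curves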
T5 construct: also called adeno-associated virus serotype 8
Description: as §1

[6] = biological target: T6, AAV9; assay: SPR, AAV on CM5 chip;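 also: surface plasmon resonance with AAV amine-coupled to the chip as ligand, nanobodies injected as analyte over a concentration series, rate constants and affinity fitted from binding curves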
T6 construct: also called adeno-associated virus serotype 9
Description: as §1

Binder	Kd [1] [nM]	koff [1] [s⁻¹]	kon [1] [M⁻¹ s⁻¹]	Kd [2] [nM]	koff [2] [s⁻¹]	kon [2] [M⁻¹ s⁻¹]	Kd [3] [nM]	koff [3] [s⁻¹]	kon [3] [M⁻¹ s⁻¹]	Kd [4] [nM]	koff [4] [s⁻¹]	kon [4] [M⁻¹ s⁻¹]	Kd [5] [nM]	koff [5] [s⁻¹]	kon [5] [M⁻¹ s⁻¹]	Kd [6] [nM]	koff [6] [s⁻¹]	kon [6] [M⁻¹ s⁻¹]
A4-055 (VHH) VHH: VQLQESGGGLVQPGGSLRLSCAASGSIFSINTMGWYRQAPGKQRELVAAVTRGGSTNYADSVKGRFTISRDNAKNTVYLQMNSLRPEDTAVYYCHVDEVRQSSWTTSNLWGQGTQVTVSS	1.11	0.00022	198000	4.06	0.00032	78800	2.23	0.00044	198000									
A4-052 (VHH) VHH: VQLQESGGGLVQPGGSLRLSCAASGSIFIINTMGWYRQAPGKQRELVAAVTRGGSTNYADSVKGRFTISRDNAKNTVYLQMNSLRPEDTAVYYCHVDEVRQSSWTTSNLWGQGTQVTVSS	388	0.00056	1440	7.38	0.00077	104000	47.6	0.00151										
A4-053 (VHH) VHH: VQLQESGGGLVQPGGSLRLSCAASGSIFIINTMGWYRRAPGKQRELVAAVTRGGSTNYADSVKGRFTISRDNAKNTVYLQMNSLRPEDTAVYYCHVDEVRQSSWTTSNLWGQGTQVTVSS	7.52	0.00121	161000	2.6	0.00048	185000	15.7	0.00146	93200									
A4-057 (VHH) VHH: VQLQESGGGLVQPGGSLRLSCAASGSIFSINTMGWYRQAPGKQREKVAAVTRGGSTNYADSVKGRFTISRDNAKNTVYLQMNSLRPEDTAVYYCHVDEVRQSSWTTSNLWGQGTQVTVSS	64.4	0.00027	4200	53.3	0.00049	9190	103	0.00031	3020									
A4-058 (VHH) VHH: VQLQESGGGLVQPGGSLRLSCAASGSIFSINTMGWYRQAPAKQREIVATVTRDGSTNYAESVKGRFTISRDNAKNTVYLQMNSLRPEDTAVYYCHLDEVRQSTWTTSNLWGQGTQVTVSS	24.5	0.00129	52600	6.11	0.0012	196000	33.4	0.00173	51800									
A4-059 (VHH) VHH: VQLQESGGGAVQPGGSLRLSCAASGSHFSLNTMGWYRRAPGKQRELVATVTRGGSTNYADSVKGRFTISRDNAKNTIYLQMNSLRPEDTAVYYCHVDEVRQSTWTTSNLWGQGTQVTVSS	16.6	0.00091	54900	0.514	6e-05	117000	29	0.00094	32500									
A4-060 (VHH) VHH: VQLQESGGGLVQPGGSLRLSCAASGSTFSLNTMGWYRQAPGKQREIVATVTRGGSTNYAESVKGRFTISRDNAKNTVYLQMNSLRPEDTAVYYCHVDEVRQSTWTTSNLWGQGTQVTVSS	2.45	0.00045	184000	69.2	0.00176	25400	6.63	0.00055	82900									
A4-061 (VHH) VHH: VQLQESGGGLVQPGGSLRLSCAASGSRFSLNTMGWYRQAPGKQRELVATVTRGGSTNYANSVKGRFTISRDNAKNTVYLQMNSLRPEDTAVYYCHVDEVRQSTWTTSNLWGQGTQVTVSS	86.8	0.00055	6330	273	0.0013	4770	530	0.00057										
A4-062 (VHH) VHH: VQLQESGGGLVQAGGSLRLSCAASGSSFSINAMGWYRQAPGKQRELVATVTRGGTTNYADSVKGRFTISRDNPKNTVYLQMNSLRPEDTAVYYCHLDEVRESSWTTSNLWGQGTQVTVSS	0.0635	1e-05	157000	1.83	6e-05	32800	1.39	0.00019	137000									
A4-033 (VHH) VHH: VQLQESGGGLVQPGGSLRLSCVASGSSFSINTMGWYRRAPGKQRELVATVTRDGSTNYANSVKGRFTISRDNAKNTVYLQMNSLRPEDTAVYYCHVDEVRQSSWTTSNLWGQGTQVTVSS										243	0.002	8220	89.2	0.00034	3810	199	0.00045	2270
A4-035 (VHH) VHH: VQLQESGGGLVQAGGSLRLSCAASGRGFSINTMGWYRQAPGKQRELVAAVTRGGTTNYADSVKGRFTISRDNAKNTVYLQMNSLRPEDTAVYYCHVDEVRQSSWTTSNLWGQGTQVTVSS										2.52	0.0005	199000	1.31	0.00017	130000	1.73	0.0001	57800
A4-036 (VHH) VHH: VQLQESGGGLAQAGGSLRLSCAASGRGFSINTMGWYRQAPGKQRELVAAVTRGGTTNYADSVKGRFTISRDNAKNTVYLQMNSLRPEDTAVYYCHVDEVRQSSWTTSNLWGQGTQVTVSS										810	0.00621	7670	336	0.00225	6700	1620	0.00944	5810
A4-037 (VHH) VHH: VQLQESGGGLVQPGGSLRLSCAASGSIFSINTMGWYRQAPGKQRELVATVTRGGSTNYAGSVKGRFTISRDNAKNTVYLQMNSLRPEDTAVYYCHLDEVRQSSWTTSNIWGQGTQVTVSS										0.88	0.00012	136000	11.6	0.0015	129000	4.07	0.0004	98300
A4-040 (VHH) VHH: VQLQESGGGLVQPGGSLRLSCAASGRIFSINTMGWYRQAPGKQRELVATVTRGGSTNYADSVKGRFTISRDNAKNTVYLQMNSLRPEDTAVYYCHVDEIRQSSWTTSNLWGQGTQVTVSS										3.04	0.00022	72300	1.71	0.00028	164000	2.19	0.00022	101000
A4-041 (VHH) VHH: VQLQESGGGLVQPGGSLRLSCAASGRGFSINTMGWYRQAPGKQRELVATVTRGGSTNYANSVKGRFTISRDNAKNTVYLQMNSLRPEDTAVYYCHVDELRQSSWTTSNLWGQGTQVTVSS										45.9	0.00616	134000	1980	0.00245	1240	8.15	0.00142	174000
A4-042 (VHH) VHH: VQLQESGGGLVQPGGSLRLSCAASGRAFSINTMGWYRQAPGKQRELVATVTRDGSTNYADSVKGRFTISRDNAKNTVYLQMNSLRPEDTAVYYCHVDEVRQSSWTTSNLWGQGTQVTVSS										152	0.00118	7760	125	0.00042	3360	308	0.00144	4680
A4-043 (VHH) VHH: VQLQESGGGLVQPGGSLRLSCAASGRAFSINTMGWYRQAPGKQRELVATVTRDGSTNYAGSVKGRFTISRDNAKNTVYLQMNSLRPEDTAVYYCHVDEVRQSSWTTSNLWGQGTQVTVSS										7.73	0.00028	36200	5.45	0.00104	191000	0.278	4e-05	144000
A4-045 (VHH) VHH: VQLQESGGGLVQPGGSLRLSCAASGSSFSINTMGWYRQAPGKQRELVAAVTRGGVTNYADSVKGRFTISRDNAKNTVYLQMNSLRPEDTAVYYCHVDEVRQSSWTTSNLWGQGTQVTVSS										41.3	0.00037	8950	1.07	1e-05	9390	37.6	0.00027	7190
A4-049 (VHH) VHH: VQLQESGGGLVQPGGSLRLSCAASGSMFSINTMGWYRQAPGKQRELVAAVTRGGNTNYAGSVKGRFTISRDNAKNTVYLQMNSLRPEDTAVYYCHVDEVRQSSWTTSNLWGQGTQVTVSS										9.61	0.00158	164000	20.8	0.00056	26900	93.1	0.00194	20800
A4-050 (VHH) VHH: VQLQESGGGLVQPGGSLRLSCAASGSSFVINTMGWYRQAPGKQRELVAAVTRGGSTNYADSVKGRFTISRDNAKNTVYLQMNSLRPEDTAVYYCHVDEVRQSSWTTSNLWGQGTQVTVSS										7	7e-05	10000	2.44	0.00043	176000	2.52	0.00049	194000
